In patent publication US5260280A (priority 1989, dated 1993):
Several values for one entry are separate records, joined by “and”; a condition that tells them apart may be missing. Identical values can stand only once.

Legend:
[1] = target: cholera toxin CT (Vibrio cholerae, UniProt P01556); type: cell-based
[2] = target: enterotoxin CFA/II(LT-II) (Escherichia coli, UniProt P0CK94); type: cell-based, E. coli
[3] = system: enterotoxin LT-I; design: species or system E. coli; conditions: in vivo, po
[4] = target: enterotoxin CFA/I(LT-1) (Escherichia coli, UniProt D0Z6T1); type: cell-based, E. coli
[5] = target: cholera toxin B-subunits (Vibrio cholerae, UniProt P01556); type: binding

B1: lactoferrin (protein, UniProt P24627 20-708, looked up)
Lactotransferrin: APRKNVRWCTISQPEWFKCRRWQWRMKKLGAPSITCVRRAFALECIRAIAEKKADAVTLDGGMVFEAGRDPYKLRPVAAEIYGTKESPQTHYYAVAVVKKGSNFQLDQLQGRKSCHTGLGRSAGWIIPMGILRPYLSWTESLEPLQGAVAKFFSASCVPCIDRQAYPNLCQLCKGEGENQCACSSREPYFGYSGAFKCLQDGAGDVAFVKETTVFENLPEKADRDQYELLCLNNSRAPVDAFKECHLAQVPSHAVVARSVDGKEDLIWKLLSKAQEKFGKNKSRSFQLFGSPPGQRDLLFKDSALGFLRIPSKVDSALYLGSRYLTTLKNLRETAEEVKARYTRVVWCAVGPEEQKKCQQWSQQSGQNVTCATASTTDDCIVLVLKGEADALNLDGGYIYTAGKCGLVPVLAENRKSSKHSSLDCVLRPTEGYLAVAVVKKANEGLTWNSLKDKKSCHTAVDRTAGWNIPMGLIVNQTGSCAFDEFFSQSCAPGADPKSRLCALCAGDDQGLDKCVPNSKEKYYGYTGAFRCLAEDVGDVAFVKNDTVWENTNGESTADWAKNLNREDFRLLCLDGTRKPVTEAQSCHLAVAPNHAVVSRSDRAAHVKQVLLHQQALFGKNGKNCPDKFCLFKSETKNLLFNDNTECLAKLGGRPTYEEYLGTEYVTAIANLKKCSTSPLLEACAFLTR
With B1 the “neutralization of the toxicity of CT against CHO-Kl cells (morphological alteration)” value [1] was “neutralized the toxicity”, the “neutralization of the toxicity of LT-II against CHO-Kl cells (morphological alteration)” value [2] was “neutralized the toxicity” and the Rate of diarrhea [3] was 40% and 20%. For the same molecule, the “neutralization of the toxicity of LT-I against CHO-Kl cells (morphological alteration)” value [4] was “neutralized the toxicity” and the “interference with the binding of the cholera toxin B-subunits to GM1” value [5] was “interfered with the binding”.
